Assay results reported in patent US20030119169A1.

Molecular target: truncated Mch3α (amino acids 199-303), p12 subunit (human) (UniProt P55210)
Assay: cell-based or functional assay

Chain of truncated Mch3α (amino acids 199-303), p12 subunit (human) (P55210 199-303): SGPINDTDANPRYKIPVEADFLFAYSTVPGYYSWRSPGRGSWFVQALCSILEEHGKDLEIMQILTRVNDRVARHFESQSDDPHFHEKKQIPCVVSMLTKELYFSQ

## CPP32-p20 subunit (from UniProt P42574 29-175) (enzyme)
  apoptotic Sf9 cells on coexpression (percentage of cells): > 50%
